According to US11124779B2, “Compositions and methods for treating and preventing pancreatitis, renal injury and cancer” (Yale University, priority 2014, dated 2021):
Entries after “also recorded” stand apart in the source; their conditions may differ.

Tests used:
[1] = cited from earlier work
p38 MAPK = settings: HK-2 cell, treatment alone; Wang et al., 2014; cited from earlier work
ERK = settings: HK-2 cell, treatment alone; Wang et al., 2014; cited from earlier work
HK-2 cells = test: In vitro model of cisplatin toxicity: HK-2 cell survival by the WST-1 method; assay type: cell-based, human; settings: 20 μM cisplatin, 24 hrs; test substance 80 μg/ml
Procedure: FIG. 1B is a graph depicting the effect of renalase peptides on survival of HK-2 cells exposed to 20 μM cisplatin for 24 hrs; cell survival is depicted as % change in survival compared to that in cisplatin-treated HK-2 cells without renalase peptides; cell survival was measured by the WST-1 method; RP-A220: mutated RP-220, and RP-19 and RP-128: control peptides; peptide concentration (μg/ml) indicated in top line; n=4, *=p<0.05. […]
HK-2 cells (human proximal tubular line) obtained from ATTC (Manassas, Va., USA) were cultured in DMEM/F12 supplemented with glutamine, 10% FBS and antibiotics, and were maintained at 37° C. in 5% CO2. Cells were exposed to cisplatin (20 μM) in the presence or absence of recombinant renalase or renalase peptides for 24 hrs, and cell viability was assessed by the WST1 method (Roche Applied Science, Germany).

isolated mouse acini [2] = test: Trypsin activity (zymogen activation) in isolated mouse pancreatic acini; assay type: cell-based
Procedure: (§1) FIGS. 9A-9E, depict the results of experiments that show recombinant exogenous renalase reduce zymogen activation and injury in vitro in mice. (FIG. 9A) Isolated WT mouse acini were pretreated for 30 minutes with recombinant renalase (25 μg/mL; 0.1 μM) and then treated with either (FIG. 9A, 9D, 9E) physiologic (0.1 nM) and supraphysiologic (100 nM) cerulein or (FIG. 9B) physiologic (1 μM) or supraphysiologic (1000 μM) carbachol for 30 minutes. Trypsin activity (FIGS. 9A-9C), MTT accumulation (FIG. 9D), and LDH release (FIG. 9E) were assayed using a fluorogenic substrate. For FIG. 9C, isolated acini from renalase ^−/^− mice were treated pretreated with recombinant renalase (25 μg/mL) and then treated with cerulein (0.1 nM or 100 nM) for 30 minutes. *p<0.05 vs. supraphysiologic cerulein or carbachol, # p<0.05 vs. WT, n=3, +/−SEM.
FIGS. 13A-13C, depict the results of experiments showing caloxin blocks the protective effects of renalase. Isolated WT mouse acini were pretreated for 30 minutes with caloxin 1b (100 μM) and/or recombinant renalase (25 μg/mL) and then treated with supraphysiologic (100 nM) cerulein (CER) and assayed for trypsin activity (FIG. 13A) or MTT conversion (FIG. 13B). *p<0.05 vs. CER, # p<0.05 vs. CER+renalase. WT, n=3, +/−SEM.
Next, it was assessed whether pretreatment with recombinant human renalase reduces injury in pancreatitis. This was first assessed in isolated groups of murine acinar cells (acini) that were exposed to supraphysiologic concentrations of cerulein and carbachol (which induces early acinar cell pancreatitis responses) in isolated WT mouse acini and acini isolated from renalase deficient mice in vitro (FIG. 9). The recombinant renalase reduced trypsinogen activation induced by either cerulein (FIG. 9A) or carbachol (FIG. 9B). […] Renalase had no effect on untreated acini or acini treated with physiologic stimulation.

mice = settings: literature (Lee et al., 2013; Wang et al., 2014); cited from earlier work
WT mice = test: Cerulein-induced pancreatitis in vivo; set-up: species or system mouse; settings: single IP dose 2 hours after initiating cerulein pancreatitis; sacrificed at hour 7
Procedure: FIGS. 10A-10G, depict the results of experiments showing that pretreatment with renalase peptide (RP-220) ameliorates cerulein-induced pancreatitis in vivo. WT mice were treated with 6 hourly IP injections of cerulein (CER, 40 mcg/kg). IP renalase peptide, RP-220 (renalase, 1.3 mg/kg) was given 1 hour before first cerulein injection. (FIG. 10A) Pancreatic trypsin activation measured with fluorogenic substrate, normalized to total protein. (FIG. 10B) Edema measured as % wet weight. (FIG. 10C) Apoptosis evaluated by TUNEL positive cells. (FIG. 10D) Neutrophils (Ly-6B) and (FIG. 10E) macrophages (F4/80) were quantified. Pancreas H&E sections (FIG. 10G) were evaluated for edema, pyknotic nucei, and vacuoles to derive morphological score (FIG. 10F). *p<0.05 vs. WT-CER, +/−SEM, n=5.
A single dose of renalase was given intraperitoneally (100 μg peptide/25 g body weight) 2 hours after inducing cerulein-pancreatitis. Six hourly injections IP of 50 μg/kg and animals were sacrificed at hour 7. Histologic pancreatitis severity was evaluated by two blinded reviewers. […] N=4 mice in each group.
To determine whether the protective of renalase observed in isolated acini was relevant in vivo, WT mice were pretreated (1 hour) with a single dose of the renalase peptide (RP-220) intraperitoneally (100 μg peptide/25 g body weight) prior to inducing cerulein-pancreatitis (6 hourly injections IP of 50 μg/kg). […]

isolated mouse acini [3] = test: Injury of isolated mouse pancreatic acini (MTT, LDH release, H&E histology); assay type: cell-based; settings: WT mouse acini, renalase 25 μg/mL, cerulein
Procedure: as §1
FIGS. 13A-13C, depict the results of experiments showing caloxin blocks the protective effects of renalase. […]
Next, it was assessed whether pretreatment with recombinant human renalase reduces injury in pancreatitis. This was first assessed in isolated groups of murine acinar cells (acini) that were exposed to supraphysiologic concentrations of cerulein and carbachol (which induces early acinar cell pancreatitis responses) in isolated WT mouse acini and acini isolated from renalase deficient mice in vitro (FIG. 9). […]

PMCA [4] = molecular target: PMCA (Homo sapiens, UniProt P23634); test: Ca2+ efflux through PMCA, time lapse confocal microscopy, HK2 cells; assay type: cell-based
Sequence of PMCA (Homo sapiens, UniProt P23634) (P23634 1-1205 isoform P23634-6): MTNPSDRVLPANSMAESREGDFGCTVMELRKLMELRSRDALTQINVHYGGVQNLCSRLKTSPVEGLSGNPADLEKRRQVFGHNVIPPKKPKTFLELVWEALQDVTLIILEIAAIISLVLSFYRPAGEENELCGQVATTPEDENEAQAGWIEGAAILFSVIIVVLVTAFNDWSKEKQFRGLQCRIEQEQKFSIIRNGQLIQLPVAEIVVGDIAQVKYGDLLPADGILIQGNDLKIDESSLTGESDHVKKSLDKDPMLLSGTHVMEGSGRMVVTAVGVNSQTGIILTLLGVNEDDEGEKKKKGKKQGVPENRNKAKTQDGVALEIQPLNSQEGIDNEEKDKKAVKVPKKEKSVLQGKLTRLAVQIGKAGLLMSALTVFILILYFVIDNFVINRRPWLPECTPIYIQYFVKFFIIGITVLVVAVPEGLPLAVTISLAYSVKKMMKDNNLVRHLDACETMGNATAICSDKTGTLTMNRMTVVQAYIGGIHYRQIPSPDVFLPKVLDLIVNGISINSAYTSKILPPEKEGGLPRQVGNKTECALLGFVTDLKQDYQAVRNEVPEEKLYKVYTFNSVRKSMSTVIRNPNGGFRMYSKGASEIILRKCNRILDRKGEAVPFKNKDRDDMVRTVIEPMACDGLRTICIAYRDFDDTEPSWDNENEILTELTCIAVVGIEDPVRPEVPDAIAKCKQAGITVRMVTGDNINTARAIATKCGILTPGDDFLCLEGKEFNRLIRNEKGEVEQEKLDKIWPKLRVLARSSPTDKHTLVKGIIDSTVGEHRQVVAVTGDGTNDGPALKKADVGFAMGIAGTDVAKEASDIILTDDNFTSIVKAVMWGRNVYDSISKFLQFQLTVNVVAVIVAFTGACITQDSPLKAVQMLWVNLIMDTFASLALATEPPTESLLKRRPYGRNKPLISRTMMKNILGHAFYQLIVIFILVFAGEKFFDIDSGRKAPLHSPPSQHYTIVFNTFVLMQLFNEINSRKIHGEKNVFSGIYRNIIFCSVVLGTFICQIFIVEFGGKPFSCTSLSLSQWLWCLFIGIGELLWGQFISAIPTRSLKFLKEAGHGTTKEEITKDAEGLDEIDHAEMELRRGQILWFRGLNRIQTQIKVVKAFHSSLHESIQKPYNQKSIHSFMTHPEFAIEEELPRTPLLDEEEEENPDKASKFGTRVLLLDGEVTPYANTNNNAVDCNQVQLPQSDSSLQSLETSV
Procedure: (§2) FIGS. 12A-12F, depict the results of experiments showing renalase increases Ca^2+ efflux through PCMA. Changes in whole cell cytosolic Ca^2+ were recorded with the Ca^2+ dye Fluo-4 (HK2 cells) or Fluo-5 (acinar cell) by time lapse confocal microscopy. FIGS. 12A, 12B, 12D, and 12E are representative plots of fluorescence over time in HK2 cells (FIGS. 12A and 12B) or mouse acinar cells (FIGS. 12D and 12E). Cells were pretreated with 30 μM cyclopiazonic acid and perfused with Ca^2+-free medium. Cells were briefly stimulated with 10 nM angiotensin IV (Ang in HK2 cells) or 100 nM cerulein (Cer in acinar cells) in the presence of 1.3 mM Ca^2+. […] For FIGS. 12C and 12F, the rate of Ca^2+ efflux was quantified from 30 cells/treatment group. *p<0.05 vs. no renalase. […]
(§3) PMCA selectively binds renalase (FIG. 6). […] Since the protective effects of renalase were first characterized in HK-2 cells (human kidney cell line) (Lee et al., 2013, J Am Soc Nephrol 24, 445-455; Wang et al., 2014, Journal of the American Society of Nephrology: JASN), its effects on Ca^2+ signals were evaluated in these cells and subsequently in mouse acinar cells (FIG. 12). […] Perfusion buffer was then switched back to Ca^2+-free medium in the presence or absence of renalase, and cytosolic Ca^2+ levels were monitored over time and the rates of Ca^2+ efflux were calculated (FIG. 12). […]

PMCA [5] = molecular target: T1, PMCA (Mus musculus, UniProt Q6Q477); test: Ca2+ efflux through PMCA, time lapse confocal microscopy, mouse acinar cells; assay type: cell-based
T1 sequence (Q6Q477 1-1205): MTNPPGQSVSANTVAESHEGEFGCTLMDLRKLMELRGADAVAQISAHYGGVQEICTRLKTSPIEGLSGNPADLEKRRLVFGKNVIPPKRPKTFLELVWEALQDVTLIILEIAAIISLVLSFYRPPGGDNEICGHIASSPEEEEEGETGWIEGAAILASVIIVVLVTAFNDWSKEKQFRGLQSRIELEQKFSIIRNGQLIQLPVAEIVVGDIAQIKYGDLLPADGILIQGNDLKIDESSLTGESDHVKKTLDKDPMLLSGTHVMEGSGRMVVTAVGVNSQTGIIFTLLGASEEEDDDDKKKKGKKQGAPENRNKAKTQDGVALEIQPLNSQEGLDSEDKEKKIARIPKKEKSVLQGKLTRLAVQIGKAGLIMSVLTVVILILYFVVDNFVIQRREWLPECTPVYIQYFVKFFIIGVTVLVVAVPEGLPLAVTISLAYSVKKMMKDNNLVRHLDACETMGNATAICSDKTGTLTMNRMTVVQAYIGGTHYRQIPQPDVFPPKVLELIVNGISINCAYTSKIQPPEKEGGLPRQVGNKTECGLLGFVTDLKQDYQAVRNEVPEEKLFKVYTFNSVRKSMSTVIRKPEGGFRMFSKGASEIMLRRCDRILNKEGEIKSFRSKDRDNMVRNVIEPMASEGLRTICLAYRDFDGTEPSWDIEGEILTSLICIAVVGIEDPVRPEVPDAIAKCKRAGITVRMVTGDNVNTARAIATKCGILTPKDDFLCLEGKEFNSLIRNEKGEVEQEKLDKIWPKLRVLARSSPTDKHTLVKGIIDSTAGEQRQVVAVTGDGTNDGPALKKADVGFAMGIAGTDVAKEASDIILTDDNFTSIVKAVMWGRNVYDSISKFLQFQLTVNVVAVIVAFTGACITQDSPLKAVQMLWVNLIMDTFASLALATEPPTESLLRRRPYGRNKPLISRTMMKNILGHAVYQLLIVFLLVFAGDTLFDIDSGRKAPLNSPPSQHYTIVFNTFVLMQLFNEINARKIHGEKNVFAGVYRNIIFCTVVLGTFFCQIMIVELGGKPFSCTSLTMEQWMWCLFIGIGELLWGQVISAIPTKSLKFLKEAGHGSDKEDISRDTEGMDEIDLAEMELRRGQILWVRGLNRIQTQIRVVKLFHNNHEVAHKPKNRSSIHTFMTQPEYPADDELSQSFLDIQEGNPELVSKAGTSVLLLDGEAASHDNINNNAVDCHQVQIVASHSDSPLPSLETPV
Procedure: as §2, §3

renalase KO mice = settings: Wang et al., 2014; cited from earlier work

B1: recombinant renalase: recombinant full-length human renalase, secretory flavoprotein oxidase; synthesized as in Desir et al., 2012; SEQ ID NO: 8 or 9 (protein)
chain: ALLRRQTSGPLYLAVWDKAEDSGGRMTTACSPHNPQCTADLGAQYITCTPHYAKKHQRFYDELLAYGVLRPLSSPIEGMVMKEGDCNFVAPQGISSIIKHYLKESGAEVYFRHRVTQINLRDDKWEVSKQTGSPEQFDLIVLTMPVPEILQLQGDITTLISECQRQQLEAVSYSSRYALGLFYEAGTKIDVPWAGQYITSNPCIRFVSIDNKKRNIESSEIGPSLVIHTTVPFGVTYLEHSIEDVQELVFQQLENILPGLPQPIATKCQKWRHSQVTNAAANCPGQMTLHHKPFLACGGDGFTQSNFDGCITSALCVLEALKNYI
- blood pressure ([1]; rodents, Xu et al., 2005, Milani et al., 2011): decreases blood pressure
- plasma catecholamines ([1]; wild type (WT) mice): lowers
- systemic blood pressure ([1]; wild type (WT) mice): lowers
- p38 phosphorylation (p38 MAPK): rapidly increased
- ERK phosphorylation (ERK): rapidly increased
- survival of HK-2 cells exposed to cisplatin (protective effect) (HK-2 cells): protected HK-2 cells to a similar degree
- trypsinogen activation induced by cerulein (isolated mouse acini [2]; WT mouse acini, renalase 25 μg/mL 30 minutes pretreatment, supraphysiologic (100 nM) cerulein): reduced
- trypsinogen activation induced by carbachol (isolated mouse acini [2]; WT mouse acini, renalase 25 μg/mL 30 minutes pretreatment, supraphysiologic (1000 μM) carbachol): reduced
- effect on untreated acini (isolated mouse acini [2]; no stimulation): no effect
- effect on acini treated with physiologic stimulation (isolated mouse acini [2]; physiologic cerulein (0.1 nM) or carbachol (1 μM)): no effect
- trypsinogen activation in acini from renalase knockout (KO) mice (isolated mouse acini [2]; renalase 25 μg/mL, cerulein 0.1 nM or 100 nM, 30 minutes): reduced
- ischemic acute kidney injury (AKI) (mice): significantly attenuates; also recorded: protects mice against ischemic AKI
- individual and aggregate histologic scores of pancreatitis (WT mice): significantly decreased injury; also recorded: significantly less
- injury of acini in vitro (MTT accumulation, LDH release) (isolated mouse acini [3]): reduce
- baseline Ca2+ levels (PMCA [4]): did not change
- rate of Ca2+ efflux (PMCA [4]; 10 nM angiotensin IV, Ca2+-free and Na+-free medium, cyclopiazonic acid): increased
- baseline Ca2+ levels (PMCA [5]): did not change
- rate of Ca2+ efflux (PMCA [5]; 100 nM cerulein, Ca2+-free medium, cyclopiazonic acid): increased
- activating MAPK signaling in renalase KO mice (renalase KO mice): neither renalase nor RP-220 is effective
- protecting renalase KO mice against mild or severe ischemic AKI (renalase KO mice): neither renalase nor RP-220 is effective
